Experimental data published in the supplement of paper PMC7877785.
± gives the uncertainty stated by the source.

Assay: self-splicing fitness, log relative to wild type (ln ratio); higher = more splicing; Tetrahymena group I intron in knt gene, E. coli kanamycin selection, DiMSum; sequences stand for … in CUCUCU…GGAGGGAAAAGUUAUCAGGCAUGCACCUGGUAGCUAGUCUUUAAACCAAUAGAUUGCAUCGGUUUAAAAGGCAAGACCGUCAAAUUGCGGGAAAGGGGUCAACAGCCGUUCAGUACCAAGUCUCAGGGGAAACUUUGAGAUGGCCUUGCAAAGGGUAUGGUAAUAAGCUGACGGACAUGGUCCUAACCACGCAGCCAAGUCCUAAGUCAACAGAUCUUCUGUUGAUAUGGAUGCAGUUCACAGACUAAAUGUCGGUCGGGGAAGAUGUAUUCUUCUCAUAAGAUAUAGUCGGACCUCUCCUUAAUGGGAGCUAGCGGAUGAAGUGAUGCAACACUGGAGCCGCUGGGAACUAAUUUGUAUGCGAAAGUAUAUUGAUUAGUUUUGGAGUACUCGUGGUCG
Summary of the method: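 A randomised library covering all eight P1ex-region intron nucleotides was built with the intron in the knt kanamycin-resistance gene on pET-22b(+) and held in E. coli BL21(DE3). Cells were grown overnight at 37°C or 30°C on LB agar, with or without 25 μg/mL kanamycin, plus 100 μg/mL carbenicillin, 50 μM IPTG and 0.2% rhamnose, and pooled colonies were amplicon-sequenced on an Illumina HiSeq 2500. DiMSum fitness is the error-weighted combination of wild-type-normalised replicate fold changes, kanamycin versus none.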

Sequence | self-splicing fitness (ln) (30 °C) | self-splicing fitness (ln) (37 °C)
UAUGAGCAAUAUUACGCGUU | -4.08 ± 0.36 | -1.79 ± 0.24
AUGGAGCAAUAUUACGAACA | -1.55 ± 0.38 | –
AGGAAGCAAUAUUACGUGAC | -3.65 ± 0.22 | -2.45 ± 0.15
UGAAAGCAAUAUUACGCUGA | -2.09 ± 0.15 | -3.15 ± 0.23
CCGGAGCAAUAUUACGCCGA | -3.86 ± 0.41 | –
GGGUAGCAAUAUUACGGUCU | -0.845 ± 0.08 | -0.011 ± 0.11
CUGAAGCAAUAUUACGUAGG | -3.21 ± 0.18 | -2.36 ± 0.25
GUCGAGCAAUAUUACGUCCA | -2.21 ± 0.22 | -2.53 ± 0.26
ACGUAGCAAUAUUACGAUAC | -2.62 ± 0.12 | -2.26 ± 0.19
AUGGAGCAAUAUUACGCAAA | -2.21 ± 0.36 | –
GAAGAGCAAUAUUACGCUGA | – | -2.3 ± 0.28
AUGGAGCAAUAUUACGGUUA | – | -2.16 ± 0.34
CGUUAGCAAUAUUACGCAUC | – | -2.72 ± 0.41
CUGUAGCAAUAUUACGUGAG | -1.31 ± 0.072 | -0.935 ± 0.096
GGACAGCAAUAUUACGAAAU | -1.25 ± 0.11 | -0.0392 ± 0.14
CAGAAGCAAUAUUACGGCUC | -2.64 ± 0.28 | -0.31 ± 0.21
UGUCAGCAAUAUUACGUUCU | -1.16 ± 0.071 | -0.142 ± 0.073
GUGGAGCAAUAUUACGAUGU | -2.4 ± 0.23 | -0.928 ± 0.29
CCGUAGCAAUAUUACGUUGC | -3.53 ± 0.28 | -2.04 ± 0.43
AGGGAGCAAUAUUACGCCAU | -3.13 ± 0.43 | –
CGAUAGCAAUAUUACGAGGU | -2.8 ± 0.22 | -3.01 ± 0.34
GGUUAGCAAUAUUACGAAUC | -1.76 ± 0.16 | -1.06 ± 0.24
UAAUAGCAAUAUUACGAUGA | -2.56 ± 0.19 | -1.48 ± 0.16
CUGUAGCAAUAUUACGUGGA | -3.85 ± 0.28 | -4.32 ± 0.42
AUGGAGCAAUAUUACGCCCA | -1.95 ± 0.27 | -1.03 ± 0.26
CUGUAGCAAUAUUACGAAGC | -4.57 ± 0.42 | -2.67 ± 0.38
UCGUAGCAAUAUUACGAGUG | -3.62 ± 0.32 | -3.09 ± 0.3

Sequence | self-splicing fitness (ln) (30 °C) | self-splicing fitness (ln) (37 °C)
CGAUAGCAAUAUUACGGUGC | -3.57 ± 0.3 | -2.23 ± 0.24
ACGUAGCAAUAUUACGAAUA | -2.32 ± 0.17 | -1.46 ± 0.12
CCGAAGCAAUAUUACGGUGC | -3.26 ± 0.3 | -2.26 ± 0.39
UAGCAGCAAUAUUACGAUAU | -2.42 ± 0.15 | -2.98 ± 0.19
GUAGAGCAAUAUUACGUUAA | -2 ± 0.17 | -0.228 ± 0.21
AAGAAGCAAUAUUACGGUUC | -2.86 ± 0.14 | -0.743 ± 0.15
GUCAAGCAAUAUUACGCGCC | -4.2 ± 0.3 | -1.95 ± 0.23
CUACAGCAAUAUUACGAGAA | -2.84 ± 0.46 | -1.92 ± 0.28
AAUGAGCAAUAUUACGUUGA | -3.71 ± 0.24 | -2.25 ± 0.17
UAGAAGCAAUAUUACGCAUU | -2.41 ± 0.29 | -2.59 ± 0.3
UACCAGCAAUAUUACGUCAA | -1.19 ± 0.079 | -0.33 ± 0.086
UAAGAGCAAUAUUACGCAGA | -2.62 ± 0.18 | -2.24 ± 0.23
UAGCAGCAAUAUUACGCCCA | -0.744 ± 0.3 | 0.445 ± 0.47
AGUGAGCAAUAUUACGGACG | -1.16 ± 0.15 | -1.45 ± 0.21
CGAGAGCAAUAUUACGCUCG | – | -2.39 ± 0.38
AGCAAGCAAUAUUACGAUAG | -2.98 ± 0.21 | -2.04 ± 0.2
GCUGAGCAAUAUUACGCCGC | -2.62 ± 0.34 | –
GCCGAGCAAUAUUACGUUAU | -2.06 ± 0.098 | -2.43 ± 0.18
UUACAGCAAUAUUACGACCA | -0.658 ± 0.14 | -0.854 ± 0.18
GAGUAGCAAUAUUACGGAUG | -1.42 ± 0.17 | –
GGAUAGCAAUAUUACGUAUG | -1.66 ± 0.28 | -0.951 ± 0.23
CGAGAGCAAUAUUACGUAUU | -2.53 ± 0.28 | -1.4 ± 0.28
AACCAGCAAUAUUACGAUGG | -2.91 ± 0.11 | -2.76 ± 0.14
AACUAGCAAUAUUACGUUUU | -3.52 ± 0.097 | -1.32 ± 0.075
AAGAAGCAAUAUUACGCUUG | -1.23 ± 0.11 | -0.951 ± 0.14
GGGCAGCAAUAUUACGUAUA | -1.85 ± 0.13 | -1.1 ± 0.14
AGCGAGCAAUAUUACGCCGU | – | -1.24 ± 0.34

Sequence | self-splicing fitness (ln) (30 °C) | self-splicing fitness (ln) (37 °C)
GGAAAGCAAUAUUACGCCAC | -2.68 ± 0.33 | –
UGUCAGCAAUAUUACGCAGU | -1.27 ± 0.18 | -0.898 ± 0.27
UCUUAGCAAUAUUACGUACU | -2.72 ± 0.17 | -1.66 ± 0.18
CAUUAGCAAUAUUACGCCGG | -0.963 ± 0.15 | 0.612 ± 0.24
CUCUAGCAAUAUUACGUCAU | -2.83 ± 0.4 | -4.18 ± 0.39
GAUCAGCAAUAUUACGGGUG | -0.356 ± 0.081 | -0.245 ± 0.094
GCGUAGCAAUAUUACGCCAG | -3.15 ± 0.41 | -2.32 ± 0.37
ACGGAGCAAUAUUACGUGUC | -4.54 ± 0.46 | -1.8 ± 0.18
GUGGAGCAAUAUUACGGUGG | -3.76 ± 0.23 | -2.5 ± 0.23
ACGUAGCAAUAUUACGGGAC | -4.43 ± 0.3 | -1.45 ± 0.16
GGCGAGCAAUAUUACGUUCU | -1.02 ± 0.051 | -0.335 ± 0.07
ACCUAGCAAUAUUACGUCCA | -1.53 ± 0.098 | -0.615 ± 0.094
CAGAAGCAAUAUUACGCGAU | -4.46 ± 0.32 | -2.59 ± 0.21
CUUAAGCAAUAUUACGCGAC | -1.83 ± 0.16 | -0.508 ± 0.23
GGGGAGCAAUAUUACGUUAU | -3.58 ± 0.18 | -2.14 ± 0.16
CAUAAGCAAUAUUACGGGCU | – | -2.73 ± 0.25
UGUCAGCAAUAUUACGGCUA | 0.131 ± 0.094 | 0.327 ± 0.12
AACUAGCAAUAUUACGCUUU | -2.44 ± 0.097 | -1.71 ± 0.12
ACGUAGCAAUAUUACGCGGA | -2.05 ± 0.18 | -0.895 ± 0.11
GCUCAGCAAUAUUACGUCUU | -0.48 ± 0.054 | -0.252 ± 0.066
UUUUAGCAAUAUUACGGGCA | -1.86 ± 0.39 | -0.575 ± 0.27
AAGAAGCAAUAUUACGCGUU | -2.74 ± 0.11 | -1.32 ± 0.11
AAUUAGCAAUAUUACGUCCC | -0.346 ± 0.41 | -0.0336 ± 0.49
CAAUAGCAAUAUUACGGUUC | -3.3 ± 0.48 | –
CGACAGCAAUAUUACGACAA | -2.08 ± 0.13 | -1.27 ± 0.13
CGAGAGCAAUAUUACGGCCG | -3.76 ± 0.43 | -1.02 ± 0.3
